Laboratory results: article PMC4106346, “The Oligomeric States of the Purified Sigma-1 Receptor Are Stabilized by Ligands” (The Journal of Biological Chemistry, 2014)

Target: Q60492
Experiment: TOXCAT (ToxR-driven CAT reporter of transmembrane self-association); TM domain between MBP and ToxR in the membrane of E. coli MM39; CAT activity of lysates as percent of glycophorin A
Details: other: TOXCAT (ToxR-driven CAT reporter of transmembrane self-association)

With WVFVNAGGWMLAMCLLHASL [TM2 domain of S1R with G91L in the TOXCAT construct] as the protein, how does the “TOXCAT response relative to nonmutated TM2” value read?
The value was “attenuated to only 60% of that observed from the nonmutated TM2”.
